# B1: scFv; the commonest letter at each place (parent)
# chain 1: EVKLDETGGGLVQPGRPMKLSCVASGFTFSDYWMNWVRQSPEKGLEWVAQIRNKPYNYETYYSDSVKGRFTISRDDSKSSVYLQMNNLRVEDMGIYYCTGSYYGMDYWGQGTSVTVS
# chain 2: DVVMTQTPLSLPVSLGDQASISCRSSQSLVHSNGNTYLRWYLQKPGQSPKVLIYKVSNRFSGVPDRFSGSGSGTDFTLKISRVEAEDLGVYFCSQSTHVPWTFGGGTKLEIK
# Assays:
# fluorescein = variants of: B1; experiment: Kd (Tite-Seq); details: with fluorescein; format: scFv 4-4-20, heavy + light
# [1] = variants of: B1; experiment: yeast surface expression (ratio to wild type); higher = more expressed; details: format: scFv 4-4-20, heavy + light
Kd (fluorescein) [µM],Variant,yeast surface expression [1]
≥ 10,chain 1 Y103N G104Q,0.766
≥ 10,chain 1 Y103N G104T,0.851
0.0692,chain 1 M34K N35A,0.175
≥ 10,chain 1 T28D D31E V37E,0.567
≥ 10,chain 1 S101I M105V,0.468
≥ 10,chain 1 S101W G104H,0.376
≥ 10,chain 1 W33G V37Y,0.672
≥ 10,chain 1 G109F,0.305
≥ 10,chain 1 G109Y,0.212
≥ 10,chain 1 F29D Y32C,0.924
≥ 10,chain 1 W33N M34F,0.815
≥ 10,chain 1 W33N M34D,0.567
≥ 10,chain 1 S101V M105N,0.675
0.00184,chain 1 T28Y D31Y,0.779
≥ 10,chain 1 Y102G G104F,0.545
≥ 10,chain 1 Y32H N35Q,0.811
≥ 10,chain 1 Y102L G109K,0.214
≥ 10,chain 1 W33N V37N,0.652
≥ 10,chain 1 F29A M34A,0.738
≥ 10,chain 1 D31Y W33H,0.579
≥ 10,chain 1 D31Y W33C,0.597
≥ 10,chain 1 Y103Q M105T,0.874
≥ 10,chain 1 N35S W36Y,0.787

Kd (fluorescein) [µM],Variant,yeast surface expression [1]
≥ 10,chain 1 G104H Y107R,0.518
≥ 10,chain 1 G100M G104C,0.544
0.00746,chain 1 G100H W108F,0.392
≥ 10,chain 1 S101I Y102V,0.488
0.345,chain 1 T28N Y32G,1.19
≥ 10,chain 1 D106K G109L,0.324
≥ 10,chain 1 S101H W108C,0.28
5.96,chain 1 W108S G109S,0.37
0.195,chain 1 Y32P N35K,0.466
≥ 10,chain 1 G100Q Y107C,0.176
9.5,chain 1 S30H Y32C,0.722
0.0146,chain 1 S30N Y32S,1.14
≥ 10,chain 1 T28W F29R,0.615
0.0038,chain 1 Y102A D106S,1.06
≥ 10,chain 1 S30N V37W,0.654
≥ 10,chain 1 G100I Y107E,0.689
≥ 10,chain 1 F29N W36L,0.472
≥ 10,chain 1 G104A D106Q,0.575
≥ 10,chain 1 N35T,0.879
≥ 10,chain 1 N35M,0.715
≥ 10,chain 1 N35R,0.534
≥ 10,chain 1 N35P,0.672
≤ 0.000316,chain 1 Y103F W108I,0.885

Kd (fluorescein) [µM],Variant,yeast surface expression [1]
0.0507,chain 1 D31L V37F,0.743
9.5,chain 1 D31L V37K,0.686
0.000939,chain 1 S30P V37S,0.74
5.66,chain 1 F29Q V37A,0.847
0.00708,chain 1 Y102T M105K,0.849
≥ 10,chain 1 G100Y D106I,0.398
≥ 10,chain 1 S30K W33L,0.749
≥ 10,chain 1 Y32T,1.04
≥ 10,chain 1 S101I G109I,0.219
≤ 0.000316,chain 1 Y102S W108T,0.599
≥ 10,chain 1 Y103T G104Q,0.9
≥ 10,chain 1 S30Q V37E,0.892
≥ 10,chain 1 Y32V V37I,1.03
≥ 10,chain 1 D106F Y107G,0.238
5.66,chain 1 T28P Y32R,1.09
0.00672,chain 1 T28P Y32C,0.967
≥ 10,chain 1 G100K Y107V,0.3
0.00546,chain 1 Y103R Y107F,0.936
≥ 10,chain 1 M34S W36K,0.646
≥ 10,chain 1 F29R S30L,0.654
≥ 10,chain 1 M34T N35D,0.415
≥ 10,chain 1 Y107D W108C,0.269
≥ 10,chain 1 S101P Y103R,0.277

Kd (fluorescein) [µM],Variant,yeast surface expression [1]
≥ 10,chain 1 M34H N35I,0.552
≥ 10,chain 1 G100I S101Y Y107A,0.466
0.000989,chain 1 T28P S30N,1.1
≥ 10,chain 1 M105T Y107N,0.778
≥ 10,chain 1 S101R D106N,0.225
≥ 10,chain 1 G100Q W108N,0.289
≥ 10,chain 1 M105I W108G,0.529
≥ 10,chain 1 G104H G109H,0.765
2.01,chain 1 S30C V37D,1.73
≥ 10,chain 1 S30P W33Q W36F,0.838
0.00279,chain 1 Y102I,1.16
0.0335,chain 1 Y102Q,1.12
0.00272,chain 1 W108P,0.625
0.000646,chain 1 W108C,0.717
0.102,chain 1 W108G,0.48
≥ 10,chain 1 S30F N35T,0.588
≥ 10,chain 1 S30F N35H,0.53
≥ 10,chain 1 S101N Y103N,1.21
0.00941,chain 1 F29T,0.981
≥ 10,chain 1 F29D,1.07
≥ 10,chain 1 G100R D106V,0.108
≥ 10,chain 1 M105S G109T,0.527
0.0391,chain 1 M34W,0.869

Kd (fluorescein) [µM],Variant,yeast surface expression [1]
0.00273,chain 1 M34I,0.873
≥ 10,chain 1 G100I Y103H,0.94
≥ 10,chain 1 M105A W108Q,0.38
≤ 0.000316,chain 1 T28R S30F,0.739
≥ 10,chain 1 D31P Y32K,0.708
0.00493,chain 1 Y103R M105K,0.768
≤ 0.000316,chain 1 Y102H W108M,0.91
≥ 10,chain 1 D31N N35S V37A,0.656
≥ 10,chain 1 Y102P W108Y,0.464
0.000804,chain 1 T28Y S30P,1.08
≥ 10,chain 1 T28M D31I W33Y,0.462
0.000846,chain 1 G100V W108V,0.892
5.96,chain 1 G100V W108C,0.628
≥ 10,chain 1 S30W N35I,0.743
0.00444,chain 1 T28V D31M,0.587
≥ 10,chain 1 G104Y G109T,0.0981
0.0162,chain 1 M105Q Y107E W108T,0.548
0.00101,chain 1 S30P,1.06
0.000964,chain 1 S30R,0.995
0.00067,chain 1 S30G,1.12
0.0302,chain 1 Y102K Y107I,1
≥ 10,chain 1 G100L G104Q W108M,0.343
0.0162,chain 1 S30K N35G,1.03
